What was measured:
[1] = biological target: SARS-CoV-2 spike D614G on pseudovirus (VRC7480.D614G) (SARS-CoV-2) (UniProt P0DTC2); assay: cell-based or functional assay
[2] = biological target: SARS-CoV-2 D614G live virus spike (SARS-CoV-2) (UniProt P0DTC2); assay: cell-based or functional assay

DH1042 (antibody) was tested, and the Pseudovirus IC50 [1] was 0.011 µg/mL, the Pseudovirus IC80 [1] was 0.053 µg/mL and the Pseudovirus MPI [1] was 100%. It also gave a Pseudovirus neutralization IC50 [1] of 0.011 µg/mL, a Pseudovirus neutralization IC80 [1] of 0.053 µg/mL and a Pseudovirus neutralization MPI [1] of 100%.

With DH1047 (antibody) the Pseudovirus neutralization IC50 [1] was 0.09 µg/mL, the Pseudovirus neutralization IC80 [1] was 0.36 µg/mL and the Pseudovirus neutralization MPI [1] was 100%. For the same substance, the live virus neutralization IC50 [2] was 0.059 µg/mL.
